Changes are numbered by the printed parent chain. Numbers in names are those of the source.
B1: DARPin D1 H118R (protein)
chain: MRGSHHHHHHGSDLGKKLLEAARAGQDDEVRILMANGADVNATDASGLTPLHLAATYGHLEIVEVLLKHGADVNAIDIMGSTPLHLAALIGHLEIVEVLLKHGADVNAVDTWGDTPLRLAAIMGHLEIVEVLLKHGADVNAQDKFGKTAFDISIDNGNEDLAEILQKLN
B2: DARPin D1 I32V; N74S; I76S; I78L; H118R; I122V; E127K; V131A; F150Y; I152T; N158S (protein)
chain: B1 chain with I32V, N74S, I76S, I78L, I122V, E127K, V131A, F150Y, I152T, N158S
B3: DARPin D1 I152T (protein)
chain: B1 chain with R118H, I152T
B4: DARPin D1 N158S (protein)
chain: B1 chain with R118H, N158S
B5: DARPin D1 I152T; N158S (protein)
chain: B1 chain with R118H, I152T, N158S
B6: DARPin D1 H118R; I152T; N158S (protein)
chain: B1 chain with I152T, N158S
B7: DARPin D1 E127K (protein)
chain: B1 chain with R118H, E127K
B8: DARPin D1 I78L (protein)
chain: B1 chain with I78L, R118H
B9: DARPin D1 I122V (protein)
chain: B1 chain with R118H, I122V
B10: DARPin D1 E127K; V131A (protein)
chain: B1 chain with R118H, E127K, V131A
B11: DARPin D1 I32V (protein)
chain: B1 chain with I32V, R118H
B12: DARPin D1 N74S; I76S; I78L (protein)
chain: B1 chain with N74S, I76S, I78L, R118H
B13: DARPin D1 I76S (protein)
chain: B1 chain with I76S, R118H
B14: DARPin D1 N74S (protein)
chain: B1 chain with N74S, R118H
B15: DARPin D1 F150Y; I152T; N158S (protein)
chain: B1 chain with R118H, F150Y, I152T, N158S
B16: DARPin D1 H118R; I122V (protein)
chain: B1 chain with I122V
B17: DARPin D1 V131A (protein)
chain: B1 chain with R118H, V131A
B18: DARPin D1 F150Y (protein)
chain: B1 chain with R118H, F150Y

These binders were tested against T1, tubulin covalently linked to a biotinylated stathmin-like peptide (assay: ELISA (off-rate estimation)). Details: chain shown with the change; incubation with 100 nM soluble tubulin to prevent rebinding; 2 nM biotinylated peptide-coupled tubulin for coating; parent: est. 0.046; read off a plot.
With B1 the response was 0.45 AU.
B2 was tested, and the response was 0.38 AU.
With B3 the response was 0.075 AU.
Work on B4 yielded a response of 0.045 AU.
For B5, the response was 0.27 AU.
B6 was tested, and the response was 0.57 AU.

Same assay, conditions: chain shown with the change; incubation with 100 nM soluble tubulin to prevent rebinding; 10 nM biotinylated peptide-coupled tubulin for coating; parent: est. 0.11; read off a plot
Work on B1 yielded a response of 0.76 AU.
Binder B7 has a response of 0.11 AU.
Binder B2 has a response of 0.74 AU.
In the case of B8, the response is reported as 0.13 AU.
B3 was tested, and the response was 0.44 AU.
With B9 the response was 0.12 AU.
Binder B10 has a response of 0.075 AU.
With B11 the response was 0.11 AU.
Work on B12 yielded a response of 0.18 AU.
For B4, the response was 0.14 AU.
B13 showed a response of 0.15 AU.
B14 showed a response of 0.18 AU.
With B15 the response was 0.69 AU.
With B16 the response was 0.69 AU.
B17 was tested, and the response was 0.1 AU.
With B18 the response was 0.13 AU.

These binders were tested against T1, tubulin covalently linked to a … (assay: ELISA). Details: chain shown with the change; buffer incubation after binding; 2 nM biotinylated peptide-coupled tubulin for coating; parent: est. 0.082; read off a plot.
With B1 the response was 0.71 AU.
B2 was tested, and the response was 0.72 AU.
B3 showed a response of 0.48 AU.
B4 gave a response of 0.15 AU.
Work on B5 yielded a response of 0.61 AU.
B6 was tested, and the response was 0.75 AU.

Same assay, conditions: chain shown with the change; buffer incubation after binding; 10 nM biotinylated peptide-coupled tubulin for coating; parent: est. 0.32; read off a plot
With B1 the response was 0.76 AU.
For B7, the response was 0.42 AU.
Binder B2 has a response of 0.74 AU.
In the case of B8, the response is reported as 0.4 AU.
B3 showed a response of 0.79 AU.
Work on B9 yielded a response of 0.22 AU.
Binder B10 has a response of 0.31 AU.
With B11 the response was 0.31 AU.
Binder B12 has a response of 0.34 AU.
Binder B4 has a response of 0.59 AU.
For B13, the response was 0.3 AU.
B14 was tested, and the response was 0.28 AU.
In the case of B15, the response is reported as 0.75 AU.
B16 was tested, and the response was 0.73 AU.
Work on B17 yielded a response of 0.24 AU.
B18 showed a response of 0.26 AU.

From publication PMC4933879
